The supplement of paper PMC9732359
± gives the uncertainty stated by the source.

assay: protein stability index of a GFP-peptide fusion (yeast GPS) (PSI 1-4); higher = more stable; sorted into four equal gates, so the index is relative within each strain; conditions: san1∆
Method in brief: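 Mid-log yeast cultures in leucine-free medium, carrying a pooled plasmid library, were sorted into four equal gates by their GFP/Cherry fluorescence ratio. Each plasmid expressed Cherry along with GFP fused upstream of a tiled 17-residue yeast protein peptide. Plasmids recovered from each gate were PCR-amplified and Illumina-sequenced, with reads assigned to strains by barcodes. The protein stability index was obtained by summing each gate's read frequency weighted by its gate number.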

Sequence | protein stability index
GSTSLIEGMEQRIIKEL [ARP7] | 2.98 ± 0.24
GSVFNMNGNTNANTVFA [YOR098C/NUP1] | 3.01 ± 0.17
GTFGGDGMYSESKLSLE [FAS2] | 3.35 ± 0.036

same assay, conditions: ubr1∆

Sequence | protein stability index
FTLWWSPTINRANVYVG [PRP8] | 2.04 ± 0.051
FTMMTSEPLTLKVLSEH [PCI8] | 1.54 ± 0.045
FTSAPIEVTIGIDQYSF [AAR2] | 1.64 ± 0.082
FVKFITYLTQEILILIN [SIN4] | 1.59 ± 0.042
FVKFLSKKGSLENNIRE [RPL10] | 3.3 ± 0.057
FVKGISRDIKALQDSLF [YML103C/NUP188] | 1.7 ± 0.043
FVKVTKATLELLKLIEP [RPL7A] | 2.91 ± 0.13
FVSESPSFVKSGKLRDY [ISW2] | 2.7 ± 0.044
FVSSLSNTSTLKNMLYV [BRR2] | 2.18 ± 0.036
FYRGNYTDFENTFQKTV [FAS1] | 2.67 ± 0.056
GAELRSVCTEAGMFAIR [RPT1] | 3.03 ± 0.23
GAHLLEFQPSGNVTELY [PRE5] | 3.02 ± 0.11
GAIAYNQFKRIDTLLYL [RET1] | 1.54 ± 0.066
GAIKPFTPKLIYDFITL [ECM29] | 1.36 ± 0.062
GAKFENIVHNFKERQMM [AAR2] | 3.04 ± 0.11
GAKYVIRDSGDRIDLRY [RPO21] | 3.45 ± 0.13
GANTSAAQTLLQMDYKD [PRE9] | 2.96 ± 0.051
GASTVMKTKTINAQGEE [PRP8] | 3.07 ± 0.07
GDEGYNEDMVRRANFYK [SNF12] | 3.45 ± 0.14
GDIVLTRVTRLSLQRAN [CSL4] | 1.32 ± 0.12
GDKFSEDFRIQFKTTIK [UBP6] | 2.58 ± 0.059
GDKVVVTIWYRAPELLL [SSN3] | 2.05 ± 0.044
GEALPNKFHKSIREDIL [SIR2] | 2.76 ± 0.07
GEFSGKNFSPTKRVEKP [RRP6] | 3.22 ± 0.059

Sequence | protein stability index
GEGPFTVKFKHMDYDGN [YMR129W/POM152] | 2.78 ± 0.059
GEIEIKPNEEEELGFWD [RPN13] | 3.24 ± 0.094
GEILLPDIADIPRTFRT [SNF5] | 3.05 ± 0.1
GEKTLSSLALVFALHKY [SMC4] | 2.98 ± 0.051
GENIDADNDGPRINNIS [SNF2] | 3.02 ± 0.09
GFSMNNPYNIVPQGKIV [SMC3] | 3.09 ± 0.062
GFSPTSPTYSPTSPAYS [RPO21] | 2.39 ± 0.038
GGAYTVSTAAAATVRST [RPL43A] | 2.14 ± 0.048
GGLFGNSAQNNSTTSGG [YGR119C/NUP57] | 3.06 ± 0.096
GGQGNTDDYFEELRDLY [FAS1] | 3.28 ± 0.059
GGSNYMSNLPFGLGYGD [RPC31] | 3.16 ± 0.18
GHLPEVSSKCNDIHLRF [ECM29] | 3.17 ± 0.17
GHRMKNAQSKLSLTLNT [SNF2] | 2.24 ± 0.041
GHVKPVRCVNCSKSIPK [RPS26A] | 3.06 ± 0.14
GIACAGKGLQSAIDVLD [RPN2] | 2.75 ± 0.071
GIDQYSFNVKENQPFHG [AAR2] | 2.9 ± 0.051
GIGALFTQQELQKQMGI [RPC34] | 2.69 ± 0.11
GIKKHSLWRRTVYSLSQ [YDL116W/NUP84] | 1.48 ± 0.041
GIKLQMQNSKVESVCQK [SMC4] | 2.5 ± 0.084
GIKPPKGVLLYGPPGTG [RPT4] | 2.01 ± 0.075
GITHFRAGMTHEDEKLI [PRP8] | 3.14 ± 0.044
GKEFGTTPEKPEETPLE [FAS2] | 2.81 ± 0.069
GKQIKSTIYNWGDNKLA [YML103C/NUP188] | 2.87 ± 0.1
GKRHIFDVNTLCLMTWK [CDC53] | 2.08 ± 0.085

Sequence | protein stability index
GKRQLMKAVGEYMKRHP [SEC65] | 2.47 ± 0.086
GLCGAGTNNARLAQLLR [RPN1] | 1.16 ± 0.042
GLIVNPVKVSGTIKKIE [POP5] | 2.26 ± 0.15
GLTTVWLLSALGNSIVK [REC8] | 1.77 ± 0.12
GLVHDLCHPKKEKYGLA [SMC1] | 2.17 ± 0.083
GMGGGMPDMNEMMKMMQ [SRP54] | 3.35 ± 0.081
GMGIGFIDHHAAIRQPT [POP1] | 2.49 ± 0.15
GMNLLSNLSQNVVPYHR [SWI1] | 2.43 ± 0.065
GNAVTVTEDGTVVTVVS [RPL22A] | 1.84 ± 0.065
GNDNLIKAPTVAADGKL [YLR335W/NUP2] | 2.95 ± 0.072
GNDTISKFYNMKQPYVF [SSN2] | 3.2 ± 0.065
GNGKLSEHFLYLAKELN [RPN1] | 2.98 ± 0.29
GNIVKEFENKFQNSYKP [YMR129W/POM152] | 3.39 ± 0.098
GNNKDLKNTMQYLTNFS [RPB4] | 3.13 ± 0.061
GNNTELTKTTVNISAVD [YCG1] | 3.12 ± 0.054
GNQRKILQYSRTWYESF [YJR042W/NUP85] | 2.21 ± 0.21
GNRYLEKRLNLRVEHIK [RPL21A] | 3.05 ± 0.071
GNSESKVEKGVNIEPFN [LIN1] | 3.13 ± 0.079
GNVIQFIYGEDGMDAAH [RPO21] | 3.32 ± 0.042
GNYIKTENATENDQQDN [LIN1] | 2.61 ± 0.086
GQHKNNTSLNINGWKFE [SWP82] | 2.99 ± 0.077
GQKNEVRILRLITTNSV [SNF2] | 2.08 ± 0.049
GQVAIKTLVYLEKCEAE [YCS4] | 2.92 ± 0.24
GRENFVYANNPEVSDDG [SIR3] | 3.03 ± 0.068

Sequence | protein stability index
GRGGSGWKPYYKLFIWL [YML031W/NDC1] | 1.31 ± 0.049
GRHVATCSSDQHIKVFK [YGL100W/SEH1] | 2.75 ± 0.052
GRMDMTRLYDYEIRDID [SSN2] | 3.36 ± 0.096
GRRKTWKRQNTLSLWRY [RPL15A] | 3.37 ± 0.057
GRTGRAANEGTAVSFVS [PRP28] | 2.7 ± 0.26
GRTPNISNGTINIQKKL [SIR4] | 2.16 ± 0.041
GRVKALEQFMERNNIGE [YDL116W/NUP84] | 3.07 ± 0.1
GSCTRQLAGKSGEDTNV [YOR098C/NUP1] | 3.17 ± 0.082
GSEEKAFVPKKRKTNII [SRP54] | 3.02 ± 0.06
GSEVRLRDDTLPKAWIS [COR1] | 2.69 ± 0.06
GSGKSNMMDAISFVLGV [SMC1] | 3.32 ± 0.043
GSGSRLNRLPAASLGDM [RPL23A] | 3.12 ± 0.22
GSKKGQEGKISSVYRLK [RPL26A] | 3.33 ± 0.11
GSKMEAKNEDDPAHSLN [AAR2] | 1.14 ± 0.15
GSLACDTADEAKTLIPS [RPB4] | 3.17 ± 0.071
GSNNGFGNKPAGSTGFS [YGR119C/NUP57] | 2.22 ± 0.16
GSNQQSSTGGGLFGNKP [YGR119C/NUP57] | 3.28 ± 0.042
GSNVLKSGKTIVITSIT [RRP43] | 2.33 ± 0.066
GSQFIVVSLKEGMFANA [SMC2] | 3.4 ± 0.057
GSTGGLGASFGQQQQQS [YGL172W/NUP49] | 3.1 ± 0.1
GSTSLIEGMEQRIIKEL [ARP7] | 2.71 ± 0.21
GSVFNMNGNTNANTVFA [YOR098C/NUP1] | 2.44 ± 0.066
GTFGGDGMYSESKLSLE [FAS2] | 2.87 ± 0.04
